Reference: patent US20200131266A1 (STCUBE, published 2020)
Numbering of substitutions follows the chain as printed.

T1: human BTN1A1 on cells (human, UniProt Q13410 27-526)
T1 construct: also called HEK293T cells overexpressing BTN1A1
T1 sequence: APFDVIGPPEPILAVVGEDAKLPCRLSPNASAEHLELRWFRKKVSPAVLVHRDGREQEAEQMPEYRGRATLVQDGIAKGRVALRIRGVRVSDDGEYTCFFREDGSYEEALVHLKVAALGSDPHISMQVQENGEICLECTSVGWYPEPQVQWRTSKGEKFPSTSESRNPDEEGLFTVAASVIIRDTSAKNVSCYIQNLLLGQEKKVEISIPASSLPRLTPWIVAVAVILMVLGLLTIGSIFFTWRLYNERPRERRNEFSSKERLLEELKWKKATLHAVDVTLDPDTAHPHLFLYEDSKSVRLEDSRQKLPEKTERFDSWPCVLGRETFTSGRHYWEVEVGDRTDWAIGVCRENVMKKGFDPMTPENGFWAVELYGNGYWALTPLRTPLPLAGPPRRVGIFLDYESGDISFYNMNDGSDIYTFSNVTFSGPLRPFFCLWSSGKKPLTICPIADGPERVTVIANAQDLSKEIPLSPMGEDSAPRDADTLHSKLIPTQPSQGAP

B1: STC2778 (antibody, V domains shown)
VH: QIQLVQSGPELKKPGETVKISCKASGYSFTNYGMNWVKQAPGKGLKWMGWINIYTGETTYGDDFKGRFAFSLETSASTAYLQINNLRSEDTATYFCVRGGTMIMYWGQGTTLTVSS
VL: DIVLTQSPATLSVTPGDSVSLSCRASQSISNNLHWHQQKSHESPRLLIKYASQSMSGIPSRFSGSGSGTDFTLSINSVETEDFGMYFCQQSDSWPLTFGAGTKLELK
notes: mouse hybridoma monoclonal antibody raised against human BTN1A1-Fc, kappa light chain
B2: STC2739 (antibody, V domains shown)
VH: QVQLKQSGPGLVQPSQSLSITCTVSGFSLTTHGVNWVRQSPGKGLEWLGVIWSGGSTDYNAAFISRLSISKDNSKSQVFFKMNSLQANDTAIYYCARPYYYGAMDYWGQGTSVTVSS
VL: QIVLTQSPSIMSASPGEKVTITCSASSSVSYIHWFQQKPGTSPKLWIYSTSNLASGVPARFSGSGSGTSYSLTISRMEAEDAATYYCQQRSIYPLTFGAGTKLELK
notes: as for B1
B3: STC2602 (antibody, V domains shown)
VH: EVQLQQSGPELVKPGASVKISCKASGFSFIGYYIDWVKQSPGKSLEWIGYIYPSNGETSYHQKCKGKATLTVDKSSSTVNMQLNSLTSEDSAVYYCARYGNYDWFFDVWGAGTTVTVSS
VL: B2 VL with S9A, I32M, L45F, A59I, I92S, L95Y, A99G, L105I
notes: mouse hybridoma monoclonal antibody, kappa light chain

These binders were tested against T1, human BTN1A1 on cells (assay: FACS, HEK293T cells overexpressing BTN1A1).
Description: To identify anti-BTN1A1-Fc MAbs that were specific for and which preferentially bound human BTN1A1-Fc antigen, different types of assays were performed. In a screening assay to detect preferential binding of MAbs to BTN1A1, antibody binding was determined based on the measurement of fluorescence intensity through FACS analysis (using cell membrane bound proteins). By way of example, the assay was performed using the HEK293T human embryonic kidney cell line. Illustratively, HEK293T cells overexpressing BTN1A1 were incubated with anti-BTN1A1 antibodies existing in hybridoma culture supernatant. After washing, secondary antibodies conjugated with FITC were added as detection agent. Fluorescence intensity (measured fluorescence intensity, MFI) was measured via FACS I flow cytometry analysis to assess the relative binding of the anti-BTN1A1 antibodies to membrane bound BTN1A1 WT on cells. […] Based on the binding analysis, sixty seven candidate MAb-producing hybridomas were selected, grown in ADCF medium, and their supernatant containing monoclonal antibody was concentrated and purified.

FACS (MFI) | Binder
2340 | B1
841 | B2
69.5 | B3
